Data from patent US20210139548A1 (published 2021).
*1 amine or outer side, *2 acyl side, *3 side chain or, on linkers, in order; H or OH if unused. Side-chain parts run from the residue outwards. The star is where a group is joined. C18 diacid = O=C(O)CCCCCCCCCCCCCCCCC(=O)*; γGlu = O=C(O)[C@H](CCC(=O)[*:2])N[*:1]; Isovaleryl = CC(C)CC(=O)*; AEEA = NCCOCCOCC(=O)O

Target: T1, human neuropeptide Y2 receptor (human, UniProt P49146 1-381)
T1 construct: whole, on cells; also called hNPY2 receptor; hNPY2-R
T1 sequence (looked up): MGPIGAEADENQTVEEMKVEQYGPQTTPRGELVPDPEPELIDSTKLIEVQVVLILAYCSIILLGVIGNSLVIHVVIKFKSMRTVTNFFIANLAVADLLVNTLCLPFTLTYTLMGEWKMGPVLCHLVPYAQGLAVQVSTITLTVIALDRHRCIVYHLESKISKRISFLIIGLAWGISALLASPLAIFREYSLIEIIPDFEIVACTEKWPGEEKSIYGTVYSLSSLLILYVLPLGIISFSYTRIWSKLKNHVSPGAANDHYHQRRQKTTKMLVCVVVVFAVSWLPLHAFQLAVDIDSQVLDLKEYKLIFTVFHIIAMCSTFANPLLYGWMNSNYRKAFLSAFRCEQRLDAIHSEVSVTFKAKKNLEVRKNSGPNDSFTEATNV
Assay: radioligand competition (125I-PYY(1-36)), hNPY2R membranes
Outline: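 Commercial human Y2 receptor membranes (0.5 μg protein/well) were incubated with peptide for 2 h at room temperature in 50 mM HEPES, 5 mM MgCl₂, 1 mM CaCl₂, pH 7.4, with 0.2% ovalbumin. Bound radioligand was separated on PEI-soaked GF/C filters and counted by scintillation, and IC₅₀ came from nonlinear sigmoidal regression.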

| Binder | Ki [nM] |
| --- | --- |
| Isovaleryl-APEK([AEEA-AEEA-γGlu-C18 diacid])PEEDSEPEELQRYYVSLRHYYNWLTRQRY-NH2 (SMILES CC(C)CC(=O)N[C@@H](C)C(=O)N1CCC[C@H]1C(=O)N[C@@H](CCC(=O)O)C(=O)N[C@@H](CCCCNC(=O)COCCOCCNC(=O)COCCOCCNC(=O)CC[C@H](NC(=O)CCCCCCCCCCCCCCCCC(=O)O)C(=O)O)C(=O)N1CCC[C@H]1C(=O)N[C@@H](CCC(=O)O)C(=O)N[C@@H](CCC(=O)O)C(=O)N[C@@H](CC(=O)O)C(=O)N[C@@H](CO)C(=O)N[C@@H](CCC(=O)O)C(=O)N1CCC[C@H]1C(=O)N[C@@H](CCC(=O)O)C(=O)N[C@@H](CCC(=O)O)C(=O)N[C@@H](CC(C)C)C(=O)N[C@@H](CCC(N)=O)C(=O)N[C@@H](CCCNC(=N)N)C(=O)N[C@@H](Cc1ccc(O)cc1)C(=O)N[C@@H](Cc1ccc(O)cc1)C(=O)N[C@H](C(=O)N[C@@H](CO)C(=O)N[C@@H](CC(C)C)C(=O)N[C@@H](CCCNC(=N)N)C(=O)N[C@@H](Cc1c[nH]cn1)C(=O)N[C@@H](Cc1ccc(O)cc1)C(=O)N[C@@H](Cc1ccc(O)cc1)C(=O)N[C@@H](CC(N)=O)C(=O)N[C@@H](Cc1c[nH]c2ccccc12)C(=O)N[C@@H](CC(C)C)C(=O)N[C@H](C(=O)N[C@@H](CCCNC(=N)N)C(=O)N[C@@H](CCC(N)=O)C(=O)N[C@@H](CCCNC(=N)N)C(=O)N[C@@H](Cc1ccc(O)cc1)C(N)=O)[C@@H](C)O)C(C)C) [Compound 209] | 8.07 |
| Isovaleryl-APAK([AEEA-AEEA-γGlu-C18 diacid])PEEDASPEELEQYYVSLRHYYNWLTRQRY-NH2 (SMILES CC(C)CC(=O)N[C@@H](C)C(=O)N1CCC[C@H]1C(=O)N[C@@H](C)C(=O)N[C@@H](CCCCNC(=O)COCCOCCNC(=O)COCCOCCNC(=O)CC[C@H](NC(=O)CCCCCCCCCCCCCCCCC(=O)O)C(=O)O)C(=O)N1CCC[C@H]1C(=O)N[C@@H](CCC(=O)O)C(=O)N[C@@H](CCC(=O)O)C(=O)N[C@@H](CC(=O)O)C(=O)N[C@@H](C)C(=O)N[C@@H](CO)C(=O)N1CCC[C@H]1C(=O)N[C@@H](CCC(=O)O)C(=O)N[C@@H](CCC(=O)O)C(=O)N[C@@H](CC(C)C)C(=O)N[C@@H](CCC(=O)O)C(=O)N[C@@H](CCC(N)=O)C(=O)N[C@@H](Cc1ccc(O)cc1)C(=O)N[C@@H](Cc1ccc(O)cc1)C(=O)N[C@H](C(=O)N[C@@H](CO)C(=O)N[C@@H](CC(C)C)C(=O)N[C@@H](CCCNC(=N)N)C(=O)N[C@@H](Cc1c[nH]cn1)C(=O)N[C@@H](Cc1ccc(O)cc1)C(=O)N[C@@H](Cc1ccc(O)cc1)C(=O)N[C@@H](CC(N)=O)C(=O)N[C@@H](Cc1c[nH]c2ccccc12)C(=O)N[C@@H](CC(C)C)C(=O)N[C@H](C(=O)N[C@@H](CCCNC(=N)N)C(=O)N[C@@H](CCC(N)=O)C(=O)N[C@@H](CCCNC(=N)N)C(=O)N[C@@H](Cc1ccc(O)cc1)C(N)=O)[C@@H](C)O)C(C)C) [Compound 216] | 0.93 |
| Isovaleryl-APEK([AEEA-AEEA-γGlu-C18 diacid])PEEDTAPEELQRYYVSLRHYYNWLTRQRY-NH2 (SMILES CC(C)CC(=O)N[C@@H](C)C(=O)N1CCC[C@H]1C(=O)N[C@@H](CCC(=O)O)C(=O)N[C@@H](CCCCNC(=O)COCCOCCNC(=O)COCCOCCNC(=O)CC[C@H](NC(=O)CCCCCCCCCCCCCCCCC(=O)O)C(=O)O)C(=O)N1CCC[C@H]1C(=O)N[C@@H](CCC(=O)O)C(=O)N[C@@H](CCC(=O)O)C(=O)N[C@@H](CC(=O)O)C(=O)N[C@H](C(=O)N[C@@H](C)C(=O)N1CCC[C@H]1C(=O)N[C@@H](CCC(=O)O)C(=O)N[C@@H](CCC(=O)O)C(=O)N[C@@H](CC(C)C)C(=O)N[C@@H](CCC(N)=O)C(=O)N[C@@H](CCCNC(=N)N)C(=O)N[C@@H](Cc1ccc(O)cc1)C(=O)N[C@@H](Cc1ccc(O)cc1)C(=O)N[C@H](C(=O)N[C@@H](CO)C(=O)N[C@@H](CC(C)C)C(=O)N[C@@H](CCCNC(=N)N)C(=O)N[C@@H](Cc1c[nH]cn1)C(=O)N[C@@H](Cc1ccc(O)cc1)C(=O)N[C@@H](Cc1ccc(O)cc1)C(=O)N[C@@H](CC(N)=O)C(=O)N[C@@H](Cc1c[nH]c2ccccc12)C(=O)N[C@@H](CC(C)C)C(=O)N[C@H](C(=O)N[C@@H](CCCNC(=N)N)C(=O)N[C@@H](CCC(N)=O)C(=O)N[C@@H](CCCNC(=N)N)C(=O)N[C@@H](Cc1ccc(O)cc1)C(N)=O)[C@@H](C)O)C(C)C)[C@@H](C)O) [Compound 212] | 20.3 |
| Isovaleryl-APEK([AEEA-AEEA-γGlu-C18 diacid])PEEDASPAELQRYYVELRHYYNWLTRQRY-NH2 (SMILES CC(C)CC(=O)N[C@@H](C)C(=O)N1CCC[C@H]1C(=O)N[C@@H](CCC(=O)O)C(=O)N[C@@H](CCCCNC(=O)COCCOCCNC(=O)COCCOCCNC(=O)CC[C@H](NC(=O)CCCCCCCCCCCCCCCCC(=O)O)C(=O)O)C(=O)N1CCC[C@H]1C(=O)N[C@@H](CCC(=O)O)C(=O)N[C@@H](CCC(=O)O)C(=O)N[C@@H](CC(=O)O)C(=O)N[C@@H](C)C(=O)N[C@@H](CO)C(=O)N1CCC[C@H]1C(=O)N[C@@H](C)C(=O)N[C@@H](CCC(=O)O)C(=O)N[C@@H](CC(C)C)C(=O)N[C@@H](CCC(N)=O)C(=O)N[C@@H](CCCNC(=N)N)C(=O)N[C@@H](Cc1ccc(O)cc1)C(=O)N[C@@H](Cc1ccc(O)cc1)C(=O)N[C@H](C(=O)N[C@@H](CCC(=O)O)C(=O)N[C@@H](CC(C)C)C(=O)N[C@@H](CCCNC(=N)N)C(=O)N[C@@H](Cc1c[nH]cn1)C(=O)N[C@@H](Cc1ccc(O)cc1)C(=O)N[C@@H](Cc1ccc(O)cc1)C(=O)N[C@@H](CC(N)=O)C(=O)N[C@@H](Cc1c[nH]c2ccccc12)C(=O)N[C@@H](CC(C)C)C(=O)N[C@H](C(=O)N[C@@H](CCCNC(=N)N)C(=O)N[C@@H](CCC(N)=O)C(=O)N[C@@H](CCCNC(=N)N)C(=O)N[C@@H](Cc1ccc(O)cc1)C(N)=O)[C@@H](C)O)C(C)C) [Compound 215] | 0.48 |
| Isovaleryl-APEK([AEEA-AEEA-γGlu-C18 diacid])IEEEASPEELQRYYVSLRHYYNWLTRQRY-NH2 (SMILES CC[C@H](C)[C@H](NC(=O)[C@H](CCCCNC(=O)COCCOCCNC(=O)COCCOCCNC(=O)CC[C@H](NC(=O)CCCCCCCCCCCCCCCCC(=O)O)C(=O)O)NC(=O)[C@H](CCC(=O)O)NC(=O)[C@@H]1CCCN1C(=O)[C@H](C)NC(=O)CC(C)C)C(=O)N[C@@H](CCC(=O)O)C(=O)N[C@@H](CCC(=O)O)C(=O)N[C@@H](CCC(=O)O)C(=O)N[C@@H](C)C(=O)N[C@@H](CO)C(=O)N1CCC[C@H]1C(=O)N[C@@H](CCC(=O)O)C(=O)N[C@@H](CCC(=O)O)C(=O)N[C@@H](CC(C)C)C(=O)N[C@@H](CCC(N)=O)C(=O)N[C@@H](CCCNC(=N)N)C(=O)N[C@@H](Cc1ccc(O)cc1)C(=O)N[C@@H](Cc1ccc(O)cc1)C(=O)N[C@H](C(=O)N[C@@H](CO)C(=O)N[C@@H](CC(C)C)C(=O)N[C@@H](CCCNC(=N)N)C(=O)N[C@@H](Cc1c[nH]cn1)C(=O)N[C@@H](Cc1ccc(O)cc1)C(=O)N[C@@H](Cc1ccc(O)cc1)C(=O)N[C@@H](CC(N)=O)C(=O)N[C@@H](Cc1c[nH]c2ccccc12)C(=O)N[C@@H](CC(C)C)C(=O)N[C@H](C(=O)N[C@@H](CCCNC(=N)N)C(=O)N[C@@H](CCC(N)=O)C(=O)N[C@@H](CCCNC(=N)N)C(=O)N[C@@H](Cc1ccc(O)cc1)C(N)=O)[C@@H](C)O)C(C)C) [Compound 210] | 10.5 |
| Isovaleryl-APEK([AEEA-AEEA-γGlu-C18 diacid])PEEETSPEELQRYYVSLRHYYNWLTRQRY-NH2 (SMILES CC(C)CC(=O)N[C@@H](C)C(=O)N1CCC[C@H]1C(=O)N[C@@H](CCC(=O)O)C(=O)N[C@@H](CCCCNC(=O)COCCOCCNC(=O)COCCOCCNC(=O)CC[C@H](NC(=O)CCCCCCCCCCCCCCCCC(=O)O)C(=O)O)C(=O)N1CCC[C@H]1C(=O)N[C@@H](CCC(=O)O)C(=O)N[C@@H](CCC(=O)O)C(=O)N[C@@H](CCC(=O)O)C(=O)N[C@H](C(=O)N[C@@H](CO)C(=O)N1CCC[C@H]1C(=O)N[C@@H](CCC(=O)O)C(=O)N[C@@H](CCC(=O)O)C(=O)N[C@@H](CC(C)C)C(=O)N[C@@H](CCC(N)=O)C(=O)N[C@@H](CCCNC(=N)N)C(=O)N[C@@H](Cc1ccc(O)cc1)C(=O)N[C@@H](Cc1ccc(O)cc1)C(=O)N[C@H](C(=O)N[C@@H](CO)C(=O)N[C@@H](CC(C)C)C(=O)N[C@@H](CCCNC(=N)N)C(=O)N[C@@H](Cc1c[nH]cn1)C(=O)N[C@@H](Cc1ccc(O)cc1)C(=O)N[C@@H](Cc1ccc(O)cc1)C(=O)N[C@@H](CC(N)=O)C(=O)N[C@@H](Cc1c[nH]c2ccccc12)C(=O)N[C@@H](CC(C)C)C(=O)N[C@H](C(=O)N[C@@H](CCCNC(=N)N)C(=O)N[C@@H](CCC(N)=O)C(=O)N[C@@H](CCCNC(=N)N)C(=O)N[C@@H](Cc1ccc(O)cc1)C(N)=O)[C@@H](C)O)C(C)C)[C@@H](C)O) [Compound 213] | 6.54 |
